Data taken from patent US11731099B2, “Method for controlling encapsulation efficiency and burst release of water soluble molecules from nanoparticles and microparticles produced by inverse flash nanoprecipitation” (The Trustees of Princeton University, priority 2018, dated 2023).

Experiment: Burst release of lysozyme from coated nanoparticles in release media
Format: physicochemical
Settings: PBS with 0.2 wt % Tween-20 versus PBS, 37° C.

In the case of lysozyme, the “increase of burst release in presence of surfactant” value is reported as 25%.
